{"source": "paper PMC3203580", "key": {"[1]": {"target": "T1, rhSmad1 MH1 (Homo sapiens, UniProt Q15797 1-143)", "T1 sequence (Q15797 1-143)": "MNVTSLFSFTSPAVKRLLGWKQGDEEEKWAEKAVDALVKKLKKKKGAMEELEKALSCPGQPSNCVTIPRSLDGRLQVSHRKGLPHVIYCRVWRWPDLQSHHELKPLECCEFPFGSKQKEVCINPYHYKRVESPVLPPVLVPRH", "experiment": "competition"}, "[2]": {"target": "T1, rhSmad1 MH1", "experiment": "EMSA"}, "[3]": {"target": "T1, rhSmad1 MH1", "experiment": "competition", "remark": "listed apart in the source"}}, "data": [{"binder": "GC-SBE Cmut (GGCGCC) (dsDNA) DNA 1: ACAGCTCTGGCGCCAGATGGCCTGG DNA 2: CCAGGCCATCTGGCGCCAGAGCTGT", "values": [{"measurement": "binding result", "setting": "[1]", "value": "binds"}]}, {"binder": "GC-SBE WT (dsDNA) DNA 1: ACAGCTCTGGAGCCAGATGGCCTGG DNA 2: CCAGGCCATCTGGCTCCAGAGCTGT", "values": [{"measurement": "binding result", "setting": "[2]", "value": "binds"}]}, {"binder": "GC-SBE mut (dsDNA) DNA 1: ACAGCTCTAGATCCAGATGGCCTGG DNA 2: CCAGGCCATCTGGATCTAGAGCTGT", "values": [{"measurement": "binding result", "setting": "[3]", "value": "no binding"}]}]}
